Laboratory results as given in PMC2741464.

B1: 30-bp duplex 30A/30C (EMSA) (dsDNA)
DNA 1: CCCCTATCCTTTCCGCGTCCTTACTTCCCC
DNA 2: GGGGAAGTAAGGACGCGGAAAGGATAGGGG
B2: 30-bp duplex 30A/30C, fluorescein (polarization) (dsDNA)
DNA 1: B1 DNA 1
DNA 2: B1 DNA 2

Experiments:
[1] = target: T1, Ku70/Ku80 heterodimer, wild type (human, UniProt P12956;P13010 1-609;1-732); experiment: EMSA; reduced (control), 10 mM Mg2+, titration was 0-150 nM so probably nM; 50 mM Tris-HCl pH 7.8, 10 mM MgCl2, 50 mM NaCl (FP: plus 1 mM DTT, 0.5 ml; EMSA: 20 μl, 500 fmol DNA); oxidation 2 mM diamide 15 min on ice, re-reduction 5 mM DTT 15 min on ice; binding temperature not stated; conditions: protein: recombinant; tags: His6 on Ku70; copies: 1;1; label: 32P; blunt
T1 sequence (P12956 whole entry, chain 1 of 2): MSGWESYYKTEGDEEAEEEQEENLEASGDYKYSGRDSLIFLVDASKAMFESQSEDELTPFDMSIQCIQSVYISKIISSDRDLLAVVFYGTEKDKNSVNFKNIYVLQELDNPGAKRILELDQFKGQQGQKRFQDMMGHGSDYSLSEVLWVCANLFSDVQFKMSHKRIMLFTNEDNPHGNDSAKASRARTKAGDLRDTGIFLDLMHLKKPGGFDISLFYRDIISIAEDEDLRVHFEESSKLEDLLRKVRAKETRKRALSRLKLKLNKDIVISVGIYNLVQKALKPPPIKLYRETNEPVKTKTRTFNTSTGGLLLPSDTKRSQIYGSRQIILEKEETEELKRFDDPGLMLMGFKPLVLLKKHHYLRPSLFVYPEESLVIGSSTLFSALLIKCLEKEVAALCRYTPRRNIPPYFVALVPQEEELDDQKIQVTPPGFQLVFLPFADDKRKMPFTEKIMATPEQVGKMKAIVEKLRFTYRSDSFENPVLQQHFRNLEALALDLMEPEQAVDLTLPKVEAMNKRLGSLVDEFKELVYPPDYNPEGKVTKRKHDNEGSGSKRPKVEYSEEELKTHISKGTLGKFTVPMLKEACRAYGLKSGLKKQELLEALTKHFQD
T1 sequence (P13010 whole entry, chain 2 of 2): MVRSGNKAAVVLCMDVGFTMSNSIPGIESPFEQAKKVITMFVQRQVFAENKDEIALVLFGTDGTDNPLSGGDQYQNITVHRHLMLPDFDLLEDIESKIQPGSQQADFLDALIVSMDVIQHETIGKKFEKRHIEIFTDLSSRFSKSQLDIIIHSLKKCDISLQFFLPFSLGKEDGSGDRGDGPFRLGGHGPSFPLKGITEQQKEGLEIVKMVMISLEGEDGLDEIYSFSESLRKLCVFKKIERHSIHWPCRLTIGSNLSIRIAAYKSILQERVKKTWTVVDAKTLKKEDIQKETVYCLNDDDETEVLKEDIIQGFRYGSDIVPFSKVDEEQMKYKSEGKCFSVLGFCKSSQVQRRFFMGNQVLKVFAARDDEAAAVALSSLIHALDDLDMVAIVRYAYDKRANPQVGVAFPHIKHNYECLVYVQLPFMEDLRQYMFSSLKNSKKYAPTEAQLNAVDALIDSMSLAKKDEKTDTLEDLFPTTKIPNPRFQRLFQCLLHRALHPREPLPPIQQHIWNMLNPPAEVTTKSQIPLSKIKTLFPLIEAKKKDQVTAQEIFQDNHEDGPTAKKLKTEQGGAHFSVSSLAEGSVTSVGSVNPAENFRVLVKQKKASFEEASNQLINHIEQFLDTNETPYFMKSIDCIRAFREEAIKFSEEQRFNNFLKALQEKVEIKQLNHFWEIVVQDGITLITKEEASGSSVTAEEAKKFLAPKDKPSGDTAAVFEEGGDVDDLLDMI

[2] = target: Ku70/Ku80 C493S (human, UniProt P12956;P13010 1-609;1-732, C493S); experiment: EMSA; reduced; similar to wild type (data not shown); 50 mM Tris-HCl pH 7.8, 10 mM MgCl2, 50 mM NaCl (FP: plus 1 mM DTT, 0.5 ml; EMSA: 20 μl, 500 fmol DNA); oxidation 2 mM diamide 15 min on ice, re-reduction 5 mM DTT 15 min on ice; binding temperature not stated; conditions: protein: recombinant; tags: His6 on Ku70; copies: 1;1; label: 32P; blunt
Ku70/Ku80 C493S, sequence (P12956 whole entry, chain 1 of 2): as the sequence (P12956 whole entry, chain 1 of 2) above
Ku70/Ku80 C493S, sequence (P13010 whole entry C493S, chain 2 of 2): as the sequence (P13010 whole entry, chain 2 of 2) above, with C493S counted along it

[3] = target: T2, Ku70/80ΔC (human, UniProt P12956;P13010 1-609;1-548); experiment: EMSA; reduced (control), 10 mM Mg2+, probably nM; 50 mM Tris-HCl pH 7.8, 10 mM MgCl2, 50 mM NaCl (FP: plus 1 mM DTT, 0.5 ml; EMSA: 20 μl, 500 fmol DNA); oxidation 2 mM diamide 15 min on ice, re-reduction 5 mM DTT 15 min on ice; binding temperature not stated; conditions: protein: recombinant; tags: His6 on Ku70; N-terminal His6 (pRSET B) also on Ku80ΔC per Methods; copies: 1;1; label: 32P; blunt
T2 sequence (P12956 whole entry, stated change not applied, chain 1 of 2): as the sequence (P12956 whole entry, chain 1 of 2) above
T2 sequence (P13010 1-548, stated change not applied, chain 2 of 2): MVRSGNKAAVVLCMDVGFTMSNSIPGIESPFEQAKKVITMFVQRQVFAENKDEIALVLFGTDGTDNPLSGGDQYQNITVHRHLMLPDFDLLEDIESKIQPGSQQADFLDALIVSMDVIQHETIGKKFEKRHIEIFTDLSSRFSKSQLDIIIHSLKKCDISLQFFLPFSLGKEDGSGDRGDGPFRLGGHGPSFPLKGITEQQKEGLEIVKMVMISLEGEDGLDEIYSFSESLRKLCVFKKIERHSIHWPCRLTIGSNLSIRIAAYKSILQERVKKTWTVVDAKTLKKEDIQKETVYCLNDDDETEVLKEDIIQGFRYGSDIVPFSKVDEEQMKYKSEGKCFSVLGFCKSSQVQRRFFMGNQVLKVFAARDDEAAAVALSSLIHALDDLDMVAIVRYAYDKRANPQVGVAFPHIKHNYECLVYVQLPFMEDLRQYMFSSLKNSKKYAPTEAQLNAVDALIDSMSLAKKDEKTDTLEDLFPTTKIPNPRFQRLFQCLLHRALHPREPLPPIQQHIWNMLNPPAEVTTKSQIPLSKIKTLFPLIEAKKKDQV

[4] = target: Ku70/Ku80 C493A (human, UniProt P12956;P13010 1-609;1-732, C493A); experiment: EMSA; reduced; near wild type; 50 mM Tris-HCl pH 7.8, 10 mM MgCl2, 50 mM NaCl (FP: plus 1 mM DTT, 0.5 ml; EMSA: 20 μl, 500 fmol DNA); oxidation 2 mM diamide 15 min on ice, re-reduction 5 mM DTT 15 min on ice; binding temperature not stated; conditions: protein: recombinant; tags: His6 on Ku70; copies: 1;1; label: 32P; blunt
Ku70/Ku80 C493A, sequence (P12956 whole entry, chain 1 of 2): as the sequence (P12956 whole entry, chain 1 of 2) above
Ku70/Ku80 C493A, sequence (P13010 whole entry C493A, chain 2 of 2): as the sequence (P13010 whole entry, chain 2 of 2) above, with C493A counted along it

[5] = target: T2, Ku70/80ΔC; experiment: fluorescence polarization; reduced (control), 1 mM DTT, 10 mM Mg2+, probably nM; 50 mM Tris-HCl pH 7.8, 10 mM MgCl2, 50 mM NaCl (FP: plus 1 mM DTT, 0.5 ml; EMSA: 20 μl, 500 fmol DNA); oxidation 2 mM diamide 15 min on ice, re-reduction 5 mM DTT 15 min on ice; binding temperature not stated; conditions: protein: recombinant; tags: His6 on Ku70; N-terminal His6 (pRSET B) also on Ku80ΔC per Methods; copies: 1;1; blunt
[6] = target: T1, Ku70/Ku80 heterodimer, wild type; experiment: as above; conditions: protein: recombinant; tags: His6 on Ku70; copies: 1;1; blunt
[7] = target: T1, Ku70/Ku80 heterodimer, wild type; experiment: fluorescence polarization; re-reduced: 2 mM diamide then 5 mM DTT, probably nM; 50 mM Tris-HCl pH 7.8, 10 mM MgCl2, 50 mM NaCl (FP: plus 1 mM DTT, 0.5 ml; EMSA: 20 μl, 500 fmol DNA); oxidation 2 mM diamide 15 min on ice, re-reduction 5 mM DTT 15 min on ice; binding temperature not stated; conditions: protein: recombinant; tags: His6 on Ku70; copies: 1;1; blunt

Binder | Kd [1] | binding result [2] | Kd [3] | binding result [4] | Kd [5] | Kd [6] | Kd [7]
B1 | 29.7 ± 2.5 nM | binds | 51 ± 7.7 nM | binds |  |  | 
B2 |  |  |  |  | 25.7 ± 1.5 nM | 25.8 ± 2.3 nM | 31.4 ± 3 nM
